Data: patent publication US5840530

Key:
[1] = biological target: recombinant human IL-12 beta1 receptor protein (human); test: equilibrium binding of 125I-labeled IL-12 to transfected COS cells, Scatchard analysis, single site model
[2] = biological target: recombinant human IL-12 beta2 receptor protein expressed from the B5-10 plasmid on COS cells (human); test: as above

Kd [1]: 2 to 5 nM | Kd [2]: 2 to 5 nM
Substance: recombinant human IL-12 (Interleukin-12) (from UniProt P29460) (ligand)
